The numbers were not newly measured in paper PMC9152818, which cites them from elsewhere.

Read-outs that look alike come from different tables or passages of the source.

The target of data set [1] is spike protein RBD (SARS-CoV-2) (UniProt P0DTC2).
Data set [2] has the same target. The source holds these as a separate data set.
Data set [3] has the same target. This is another data set of the same source.
Data set [4] has as its target spike protein CendR peptide CendR peptide (SARS-CoV-2) (UniProt P0DTC2).
Data set [5] has as its target spike protein (SARS-CoV-2) (UniProt P0DTC2).

One may read the Kd as a measure of binding affinity in units of concentration. Consider “soluble trimeric ACE2 (from UniProt Q9BYF1)”, for which the Kd in data set [1] was under 1 nM.
In the case of Kremen1 (from UniProt Q96MU8), the Kd in data set [2] was 20 nM.
For ASGR1 (from UniProt P07306), the Kd in data set [3] is 95 nM.
For the substance Neuropilin-1 (from UniProt O14786), the Kd in data set [4] is 20000 nM.
In the case of AXL (from UniProt P30530), the dissociation constant Kd in data set [5] is 1000 nM.
